The results in this text go back to patent publication US20210214436A1 (DRAGONFLY THERAPEUTICS, published 2021).

This assay has as its target T1, BCMA expressed on myeloma cells (MM.1R, KMS12-PE) (human, UniProt Q02223 1-184).
T1 construct: Human multiple myeloma cell lines expressing BCMA; also called surface BCMA; MM.1R myeloma cells
T1 sequence: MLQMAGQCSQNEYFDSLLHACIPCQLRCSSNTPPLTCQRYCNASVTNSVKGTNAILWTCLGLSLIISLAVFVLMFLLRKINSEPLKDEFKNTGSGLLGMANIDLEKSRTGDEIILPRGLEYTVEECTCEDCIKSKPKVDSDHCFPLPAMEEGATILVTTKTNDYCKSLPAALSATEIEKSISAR
In words: flow cytometry on MM.1R cells. The protocol:
F4-TriNKETs were diluted, and were incubated with MM.1R cells. […] Cells were analyzed by flow cytometry, binding MFI to cell expressed BCMA was normalized to secondary antibody controls to obtain fold over background values.
For orientation: A flow cytometer gives signals particle by particle.

B1: A49-F4-TriNKET-BCMA (bispecific antibody, V domains shown)
VH 1: EVQLLESGGGLVQPGGSLRLSCAASGFTFSDNAMGWVRQAPGKGLEWVSAISGPGSSTYYADSVKGRFTISRDNSKNTLYLQMNSLRAEDTAVYYCAKVLGWFDYWGQGTLVTVSS
VL 1: EIVLTQSPGTLSLSPGERATLSCRASQSVSDEYLSWYQQKPGQAPRLLIHSASTRATGIPDRFSGSGSGTDFTLAISRLEPEDFAVYYCQQYGYPPDFTFGQGTKVEIK
VH 2: EVQLVESGGGLVKPGGSLRLSCAASGFTFSSYSMNWVRQAPGKGLEWVSSISSSSSYIYYADSVKGRFTISRDNAKNSLYLQMNSLRAEDTAVYYCARGAPMGAAAGWFDPWGQGTLVTVSS
VL 2: DIQMTQSPSSVSASVGDRVTITCRASQGISSWLAWYQQKPGKAPKLLIYAASSLQSGVPSRFSGSGSGTDFTLTISSLQPEDFATYYCQQGVSFPRTFGGGTKVEIK
notes: Only variable domains can be tied to the molecule
Consider B1, for which the binding result is on record as “binds”.

B2: BCMA monoclonal antibody (EM-901) (antibody, V domains shown)
VH: B1 VH 1
VL: B1 VL 1
Consider B2, for which the binding result is given as “binds”.
